Results reported in patent US20240209100A1 (DIAGONAL THERAPEUTICS, published 2024).

B1: DGL299 (bispecific antibody, V domains shown)
V domain 1: EVQLVESGGGLVQPGGSLRLSCAASGSIFSINAMGWYRQAPGKQREVVATSTGGGMTNYADSVKGRFTISRDNAKNTVYLQMNSLKPEDTAVYYCNADKDPFFPGDYWGQGTQVTVSS
V domain 2: QVQLVESGGGLVLPGESLRLSCVVSGTIDNINSMGWYRQAPGKQRELVAYITKLGSANYADSVEGRFTISRDNAKKTVHLQMNSLKPEDTAVYYCHANERGRITWAQGTQVTVSS
B2: DGL300 (bispecific antibody, V domains shown)
V domain 1: QVQLQESGGGLVQPGGSLRLSCAASGSIFSTKGLGWYRQAPGEQRELVAGISSAGWIFYTQSVKGRFTMSRDNAKNTVYLQMNSLKPEDTAVYYCNSAQSGVPLRSWGQGTQVTVAS
V domain 2: B1 V domain 2
B3: DGL301 (bispecific antibody, V domains shown)
V domain 1: QVQLQESGGGLVQPGGSARLSCVASGIIFNDYHMGWYRQAPGKQRDLVAGITAGGSTTYADSVKGRFTISRDNAKHTVYLQMNNLSPEDTAVYYCNTFYNAILDWGKGTLVTVSS
V domain 2: B1 V domain 2
B4: DGL256 (bispecific antibody, V domains shown)
V domain 1: QVQLVESGGGLVQPGGSLRLSCTASGSDLHHYAIGWFRQAPGKEREGVSCISTTGAGTNYADSVKGRFTISRDNAKNTVYLQMDSLKPEETAVYYCAADGPSAIAGCVRTVASMYRYWGQGAQVTVSS
V domain 2: QVQLVESGGGLVQPGGSLRLSCAASRITFSIYDMGWYRQAPGKQRELVASITRRGSTNYADSTKGRFTISRDNGKNTMYLQGNSLKPEDTAVYYCNARDILGRDYWGQGTQVTVSS
B5: DGL250 (bispecific antibody, V domains shown)
V domain 1: QVQLVESGGGLVQAGGSLRLSCAASGRTFSKHAMGWFRQAPGKEREFVAAIDWSGGSTYYADSVKGRFTISRDNAKNTVYLQMDSLKPEDTAVYYCAADSYTDYAQLWLPELESEYDYWGQGTQVTVSS
V domain 2: QLQLVESGGGLVQPGGSLRLSCAAPGRIFGLNAMGWYRQAPGKQRELVASITTGGSTNYADSGKGRFTLSRSNAQNTVYRQMNSLQPEDTAVYYCNAKRGLNLNYWGQGTQVTVSS
B6: DGL251 (bispecific antibody, V domains shown)
V domain 1: B5 V domain 1
V domain 2: EVQLVESGGGLVQTGGSLRLSCVASETITDTFRMGWYRQAPGQQRELVAAITHTSETTYGDSVTGRFTISGDTAKNMVHLQMNSLKPEDTGVYYCNIRAWRRPDYWGQGTQVTVSS
B7: DGL296 (bispecific antibody, V domains shown)
V domain 1: B5 V domain 1
V domain 2: QVQLVESGGDLVLPGGSLKLSCEASGSISSRNSMAWYRRAPGKQRELVAAISSISSGGRTDYADFVKGRFTIFRDTAKNMVYLQMNNLKPEDTAVYDCDDPIRVASLAYDDWGQGTQVTVSS
B8: DGL253 (bispecific antibody, V domains shown)
V domain 1: B5 V domain 1
V domain 2: QVQLQESGGGLVQAGGSPRLSCAVSGTAFNINNFMGWYRQAPGKQRELVATITGSSTTNYASSVKGRFTISRDSAKNTVYLQMNSLKPEDTAVYYCNLRRGGWYNYWGQGTQVTVSS
B9: DGL254 (bispecific antibody, V domains shown)
V domain 1: B5 V domain 1
V domain 2: QVQLVESGGGLVQAGGSLRLSCAASESIFSFVAMGWYRQAPGKQRELVVKISSGGSTNYADSVKGRFTISRDNAKNTVYLEMNSLKFEDTGVYYCNAVRPNGMDYWGKGTLVTVSS
B10: DGL255 (bispecific antibody, V domains shown)
V domain 1: B5 V domain 1
V domain 2: B4 V domain 2
B11: DGL252 (bispecific antibody, V domains shown)
V domain 1: B5 V domain 1
V domain 2: QVQLQESGGGLVQAGGSLRLSCAASASIFSRYAIGWYRQAPGKQRDLVAAITSGGTTNYADSVKGRFTISTDNAKNTVYLQMNSLKPEDTAVYSCAAGDSRANYYWGQGTQVTVSS
B12: DGL245 (bispecific antibody, V domains shown)
V domain 1: EVQLVESGGGLVQPGGSLRLSCAASGFTLDYYTIGWFRQAPGKEREGVSCISSSGGSTNYADYVKGRFTISRDNAKNTVSLQMNSLKPEDTAVYYCAAESLIPLVETMCVMSVDDYDYWGQGTQVTVSS
V domain 2: QLQLVESGGGLVQAGGSLRLSCAASRSITFSHNVMGWYRQAPGKQRELVASIGSGGSTNYVDSVKGRATISRDNAKKTVYLQMNSLKPEDTAVYYCGVVVGVYRGSLGQGTQVTVSS
B13: DGL247 (bispecific antibody, V domains shown)
V domain 1: QVQLVESGGGSVQAGDSLRLSCAGSGRTFSSYVLGWFRQAPGKEREFVASISWSGDGTYYADSVKGRFTISRDNAENMVYLQMNSLKPEDTAVYYCAADGTTALAMSRLDASTYDFDYWGQGTQVTVSS
V domain 2: B12 V domain 2
B14: DGL249 (bispecific antibody, V domains shown)
V domain 1: B4 V domain 1
V domain 2: B12 V domain 2
B15: DGL248 (bispecific antibody, V domains shown)
V domain 1: QLQLVESGGGLVQPGGSLRLSCAASGFTLDYYAISWFRQVPGKEREGVSCISSNGGSTAYADSVKGRFTISRDNTKNTAYLQMNSLKPEDTAIYYCAASARTIQAMCQRSNFPTRYDYWGQGTQVTVSS
V domain 2: B12 V domain 2
B16: DGL293 (bispecific antibody, V domains shown)
V domain 1: QVQLVESGGGLVQAGGSLRLSCAASGRTFSSYDMGWFRQAPGKEREFVAALRWSGGSTSYADSVKGRFTISRDNAKNTVYLHMNSLKPEDTAVYYCAATLETDSGTYWADYWGQGTQVTVSS
V domain 2: B7 V domain 2
B17: DGL295 (bispecific antibody, V domains shown)
V domain 1: B3 V domain 1
V domain 2: B7 V domain 2
B18: DGL297 (bispecific antibody, V domains shown)
V domain 1: QVQLVESGGGLVQAGGSLRLSCAASGRTFSSYTMGWFRQAPGKEREFVAAISWSAGRTYYADSVKGRFTISRDNAKNTVYLQMNSLKPEDTAVYFCAAEEAPDWAPIDCSGYGCLSLYDYWGQGTQVTVSS
V domain 2: B7 V domain 2
B19: DGL298 (bispecific antibody, V domains shown)
V domain 1: B16 V domain 1
V domain 2: B1 V domain 2
B20: DGL294 (bispecific antibody, V domains shown)
V domain 1: B1 V domain 1
V domain 2: B7 V domain 2

Target: T1, IL-18 receptor (IL-18Rα/IL-18Rβ) overexpressed on HEK-Blue IL-18 cells (Homo sapiens (Human), UniProt Q13478 19-541; O95256 20-599)
T1 sequence 1: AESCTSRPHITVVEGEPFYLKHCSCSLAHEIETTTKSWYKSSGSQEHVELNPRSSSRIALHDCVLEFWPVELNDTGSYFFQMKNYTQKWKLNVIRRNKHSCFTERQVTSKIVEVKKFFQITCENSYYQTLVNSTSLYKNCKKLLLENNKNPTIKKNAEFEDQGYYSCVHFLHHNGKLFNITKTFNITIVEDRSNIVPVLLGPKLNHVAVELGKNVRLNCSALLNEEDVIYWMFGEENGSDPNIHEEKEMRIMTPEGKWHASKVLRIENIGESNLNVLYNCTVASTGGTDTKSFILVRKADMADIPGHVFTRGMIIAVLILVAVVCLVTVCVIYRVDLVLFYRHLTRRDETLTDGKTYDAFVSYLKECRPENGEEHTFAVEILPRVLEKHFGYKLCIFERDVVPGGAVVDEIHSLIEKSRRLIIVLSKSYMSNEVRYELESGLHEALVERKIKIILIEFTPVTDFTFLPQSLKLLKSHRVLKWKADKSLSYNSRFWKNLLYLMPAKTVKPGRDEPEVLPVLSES
T1 sequence 2: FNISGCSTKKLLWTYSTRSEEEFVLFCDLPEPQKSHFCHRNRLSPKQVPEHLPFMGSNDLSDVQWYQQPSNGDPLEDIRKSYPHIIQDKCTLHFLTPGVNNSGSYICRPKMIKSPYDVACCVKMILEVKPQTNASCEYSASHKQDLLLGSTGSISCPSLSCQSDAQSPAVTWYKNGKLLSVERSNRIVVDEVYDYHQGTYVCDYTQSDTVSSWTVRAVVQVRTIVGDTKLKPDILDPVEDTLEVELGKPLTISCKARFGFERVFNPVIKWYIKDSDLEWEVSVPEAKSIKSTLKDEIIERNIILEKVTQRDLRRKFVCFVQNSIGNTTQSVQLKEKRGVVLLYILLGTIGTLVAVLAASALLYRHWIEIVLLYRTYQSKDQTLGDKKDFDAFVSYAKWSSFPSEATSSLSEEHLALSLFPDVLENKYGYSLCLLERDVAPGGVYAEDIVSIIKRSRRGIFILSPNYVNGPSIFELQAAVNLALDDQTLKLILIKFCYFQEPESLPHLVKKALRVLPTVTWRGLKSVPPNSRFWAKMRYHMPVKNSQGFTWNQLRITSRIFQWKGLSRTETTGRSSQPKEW
Test: cell-based or functional assay

Binder | HEK-Blue IL-18: Abs 405 [Abs] | HEK-Blue IL-18: Fold over Background [fold]
B1 | 0.91 | 4
B2 | 1.07 | 4.7
B3 | 0.66 | 2.9
B4 | 0.42 | 1.7
B5 | 0.49 | 2
B6 | 0.31 | 1.3
B7 | 0.66 | 2.9
B8 | 0.29 | 1.2
B9 | 0.3 | 1.2
B10 | 0.32 | 1.3
B11 | 0.32 | 1.3
B12 | 2.1 | 8.6
B13 | 0.53 | 2.2
B14 | 0.12 | 0.5
B15 | 0.44 | 1.8
B16 | 2.83 | 12.3
B17 | 0.46 | 2
B18 | 0.63 | 2.7
B19 | 0.97 | 4.2
B20 | 0.86 | 3.7
